Target: biotinylated CD3 epsilon epitope peptide
Test: SPR Biacore, method of Ref. Ex. 11

B1: CE115HA000 (antibody, V domains shown)
VH: QVQLVESGGGVVQPGRSLRLSCAASGFTFSNAWMHWVRQAPGKGLEWVAQIKAKSNNYATYYAESVKGRFTISRDDSKNSLYLQMNSLKTEDTAVYYCRYVHYGAYYGVDAWGQGTTVTVSS
VL: DIVMTQSPLSLPVTPGEPASISCRSSQSLVHSNRNTYLHWYQQKPGQAPRLLIYKVSNRFSGVPDRFSGSGSGTDFTLKISRVEAEDVGVYYCGQGTQVPYTFGQGTKLEIK
- Kd: 110 nM

— US20220112296A1
